In publication PMC12229972 (EJNMMI Radiopharmacy and Chemistry, 2025):

How the values were obtained:
[1] = dynamic PET/CT imaging after cisterna magna infusion; assay type: in vivo, Sprague–Dawley rats; settings: rats
[2] = dynamic PET/CT imaging after lumbar infusion; assay type: in vivo, Sprague–Dawley rats; settings: rats

## Al[^18F]F-7: aluminum [18F]fluoride restrained complexing agent (RESCA) conjugated rat serum albumin (RSA) reference tracer
[1]; geometric mean (CV), listed as 7
  Cmax (maximum SUV), cervical and thoracic (T1-T2) vertebra (spinal canal): 4.5(17%) SUV
[1]; median(range)
  tmax, cisterna magna: 20(0) min
[2]
  Cmax, intracranial space (ICS): 0.27 %ID
[2]; median(range)
  tmax, lumbar vertebra L1-L2: 25(35) min
